Measurements from patent publication US20020102658A1.
Changes are numbered by the printed parent chain. Blank lines part the entries; values can stand above or below the binder they belong to.

Assays:
[1] = biological target: T1, rat AILIM (rat) (UniProt Q9R1T7); experiment: cell ELISA on recombinant CHO cells overexpressing rat AILIM; given as ED50
T1 sequence (looked up): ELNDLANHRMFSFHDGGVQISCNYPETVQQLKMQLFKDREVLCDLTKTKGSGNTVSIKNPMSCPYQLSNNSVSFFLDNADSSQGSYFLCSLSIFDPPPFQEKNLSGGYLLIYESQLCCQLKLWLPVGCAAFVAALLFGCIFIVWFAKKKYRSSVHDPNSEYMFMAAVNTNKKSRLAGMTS

[2] = biological target: T2, human AILIM-IgFc (recombinant chimeric antigen of the extracellular region of human AILIM and the constant region (Fc) of human IgG1) (human) (UniProt Q9Y6W8); experiment: SPR, Biacore X; human AILIM-IgFc immobilised on sensor chip, antibody in flow
T2 sequence (biotin-labeled in the inhibition ELISA of Example 14, looked up): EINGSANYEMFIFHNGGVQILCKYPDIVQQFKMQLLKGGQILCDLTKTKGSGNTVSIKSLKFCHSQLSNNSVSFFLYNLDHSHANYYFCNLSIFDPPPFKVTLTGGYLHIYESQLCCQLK

[3] = biological target: human AILIM (activation inducible lymphocyte immunomodulatory molecule) (human) (UniProt Q9Y6W8); experiment: cell ELISA on recombinant CHO cells overexpressing human AILIM; given as ED50
[4] = biological target: T3, mouse AILIM (mouse) (UniProt Q9WVS0); experiment: cell ELISA on recombinant CHO cells overexpressing mouse AILIM; given as ED50
T3 sequence (looked up): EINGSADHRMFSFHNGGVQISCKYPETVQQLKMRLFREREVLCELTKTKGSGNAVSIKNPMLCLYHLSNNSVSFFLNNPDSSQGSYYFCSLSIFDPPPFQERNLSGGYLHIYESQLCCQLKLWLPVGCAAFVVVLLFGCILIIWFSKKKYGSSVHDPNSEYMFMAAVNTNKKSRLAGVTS

- EC50 [1]: 0.057 µg/mL
- Kd [2]: 1.1 nM
- koff [2]: 4.2e-05 s⁻¹
- EC50 [3]: 0.0105 µg/mL
- EC50 [4]: 0.053 µg/mL
B1: human anti-human AILIM monoclonal antibody JMab-138 (clone AII289) (antibody, from another filing, human IgG2, V domains shown)
VH: EVQLVESGGGLVQPGGSLRLSCAASGFTFSSYDMHWVRQATGKGLEWVSAIGTAGDTYYPGSVKGRFTISRENAKNSLYLQMNSLRAGDTAVYYCVRDNRKVTHEHYYYYGMDVWGQGTTVTVSS
VL: EIVLTQSPGTLSLSPGERATLSCRASQNIRSSYLAWYQQKPGQAPGLLIYGASSRATGIPDRFSGSGSGTDFTLTISRLEPEDFAVYYCQQFGSSPMCSFGQGTKLEIKR

- EC50 [1]: 0.09 µg/mL
- Kd [2]: 0.77 nM
- koff [2]: 2.4e-05 s⁻¹
- EC50 [3]: 0.0106 µg/mL
- EC50 [4]: 0.06 µg/mL
B2: human anti-human AILIM monoclonal antibody JMab-139 (clone AII394) (antibody, from another filing, human IgG2, V domains shown)
VH: B1 VH with N99K, K101T
VL: B1 VL with N28S, R30S, Y33S, Y50F
